Results on 21 molecules are retold here after US20250361298A1 (CARTOGRAPHY BIOSCIENCES, published 2025).

Sequences and labels used below:
B1: CB21-498-142 (antibody, V domains shown)
VH: EVQLVESGGGLVQPGGSLRLSCAASGFTFSSYAMNWVRQAPGKGLEGVSGISGSGGRIYYAESVKGRFQISRDNSKSTFYLQMNSLRAEDTAVYYCAKDLDVWGKGTTVTVSS
VL: DVVMTQTPLSSPVTLGQSASISCRSSQSLVHSDANTYLNWLHQRPGQPPRLLIYKISNRFSGVPDRFSGSGSGTDFTLKISRVEAEDVGVYYCMQATQFPLTFGGGTKLEIK
B2: CB21-499-177 (antibody, V domains shown)
VH: EVQLVESGGGVVQPGRSLRLSCAASGFTFSSYGMHWVRQAPGKGLEWVAVIWYDASNKEYAPSVKGRFTISRDNSKNTLYLQMNSLRAEDTAIYYCARPGEGDYWGQGTLVTVSS
VL: DIQMTQSPSSLSASVGDRVTITCRASQGVRNDFGWFQQKPGKAPKRLIYGASSLQSGVPSRFSGSGSGTEFTLTISSLQPEDFATYYCLQQNSYPWTFGQGTKLEIK
B3: CP1475 (heavy chain from CB21-498, light chain from CB21-513) (antibody, V domains shown)
VH: B1 VH with V2M, G47C, S54N, Q69T
VL: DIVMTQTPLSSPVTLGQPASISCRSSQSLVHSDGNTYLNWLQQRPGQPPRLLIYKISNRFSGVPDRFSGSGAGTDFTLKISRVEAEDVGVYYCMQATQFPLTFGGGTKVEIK
notes: Chain-shuffled antibody
B4: CP1473 (heavy chain from CB21-498, light chain from CB21-469) (antibody, V domains shown)
VH: B1 VH with V2M, G47C, S54N, Q69T
VL: B1 VL with A34G, S72A
notes: Chain-shuffled antibody
B5: CP1479 (heavy chain from CB21-513, light chain from CB21-469) (antibody, V domains shown)
VH: EVQLVDSGGGLVEPGGSLRLSCAASGFTFSSYAMTWVRQAPGKGLEWVSGISGSGGVTDYADSVKGRFTISRDNSKNTLYMQMNSLRAEDTAVYYCAKDLGVWGKGTTVTVSS
VL: B1 VL with A34G, S72A
notes: Chain-shuffled antibody
B6: CP1481 (heavy chain from CB21-513, light chain from CB21-500) (antibody, V domains shown)
VH: B5 VH
VL: B1 VL with S18P, S28N, A34G, H42Q, S72A
notes: Chain-shuffled antibody
B7: CP1478 (heavy chain from CB21-500, light chain from CB21-513) (antibody, V domains shown)
VH: B1 VH with A40V, I51M, E62D, Q69T, I70M, S77N, T78M, F79V, V93L
VL: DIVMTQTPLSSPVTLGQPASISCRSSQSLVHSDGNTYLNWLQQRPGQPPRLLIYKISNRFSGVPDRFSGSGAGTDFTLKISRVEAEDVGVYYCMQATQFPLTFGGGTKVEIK
notes: Chain-shuffled antibody
B8: CP1471 (heavy chain from CB21-469, light chain from CB21-500) (antibody, V domains shown)
VH: B1 VH with G47W, S54N, E62D, Q69T, S77N, F79L, A88V
VL: B1 VL with S18P, S28N, A34G, H42Q, S72A
notes: Chain-shuffled antibody
B9: CP1476 (heavy chain from CB21-500, light chain from CB21-469) (antibody, V domains shown)
VH: B1 VH with A40V, I51M, E62D, Q69T, I70M, S77N, T78M, F79V, V93L
VL: B1 VL with A34G, S72A
notes: Chain-shuffled antibody
B10: CP1474 (heavy chain from CB21-498, light chain from CB21-500) (antibody, V domains shown)
VH: B1 VH with V2M, G47C, S54N, Q69T
VL: B1 VL with S18P, S28N, A34G, H42Q, S72A
notes: Chain-shuffled antibody
B11: CB21-469 (antibody, V domains shown)
VH: B1 VH with G47W, S54N, E62D, Q69T, S77N, F79L, A88V
VL: B1 VL with A34G, S72A
notes: Cloned into knob/hole human Fc and light chain vectors; IgG and bispecific TCE formats were made; BLI used a monovalent antibody format
B12: CB21-513 (antibody, V domains shown)
VH: B5 VH
VL: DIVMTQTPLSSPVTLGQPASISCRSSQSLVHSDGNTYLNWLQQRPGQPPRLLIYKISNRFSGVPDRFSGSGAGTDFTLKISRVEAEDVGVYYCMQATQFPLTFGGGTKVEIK
notes: Human Fc formats; monovalent antibody in BLI
B13: CB21-498 (antibody, V domains shown)
VH: B1 VH with V2M, G47C, S54N, Q69T
VL: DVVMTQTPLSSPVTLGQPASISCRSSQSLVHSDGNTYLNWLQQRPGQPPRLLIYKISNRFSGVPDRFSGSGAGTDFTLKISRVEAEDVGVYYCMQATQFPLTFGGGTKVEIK
notes: as for B12
B14: CB21-500 (antibody, V domains shown)
VH: B1 VH with A40V, I51M, E62D, Q69T, I70M, S77N, T78M, F79V, V93L
VL: B1 VL with S18P, S28N, A34G, H42Q, S72A
notes: as for B12
B15: CB21-522 (antibody, V domains shown)
VH: EVQLVQSGAEVKKPGASVKVSCKASGYTFTGYFIHWVRQAPGQGLEWMGWINPNSGGTYYAQEFQGRVTMTRDTSISTAYMELIRLRSDDSAVYYCARDISLVGDYWGQGTLVTVSS
VL: DVVMTQSPLSLPVTLGQPASISCRSSQSLVYSDGNTYLNWFQQRPGQSPRRLIYKVSNRDSGVPERFSGIGSGTDFTLEISRVEAEDVGVYYCMQGSHWPLTFGGGTKVEIK
notes: as for B12
B16: CB21-512 (antibody, V domains shown)
VH: EVQLVESGGGVVQPGRSLRLSCAASGFTFSSYGMHWVRQAPGKGLEWVAVLWYDGINKNYADSVKGRFAISRDNSKNTLYLQMNSLRVEDTAVYFCVRVQGDYWGQGTLVTVSS
VL: DIQMTQSPSSLSASVGDRVTITCRASQGIRNDLTWYQQKPGKAPKRLIYDTSSLQSGVPSRFSGSRSGTEFTLTISSLQPEDFASYFCLQHNIYPFTFGQGTKLEIK
notes: as for B12
B17: CB21-502 (antibody, V domains shown)
VH: B16 VH with A61V
VL: B16 VL with R66G, E70D
notes: as for B12
B18: CB21-470 (antibody, V domains shown)
VH: B16 VH with S30N, F95Y
VL: B16 VL with I93S
notes: as for B12
B19: CB21-471 (antibody, V domains shown)
VH: B2 VH with A40V, A55G, E59D, A61V, P62D, I93V
VL: B2 VL with V29I, F36Y, L104V
notes: as for B12
B20: CB21-499 (antibody, V domains shown)
VH: B2 VH with A55G, E59D, P62D
VL: B2 VL
notes: as for B12
B21: CB21-477 (antibody, V domains shown)
VH: B2 VH with A55G, E59D, P62D, I93V
VL: B2 VL with V29I, F33L, F36Y, K42R, G50A, L104V
notes: as for B12

Positions count from the first letter of the chain named. Starred links: 1 amine or outer side, 2 acyl side, 3 side chain; linkers in the order of their positions; H or OH if unused. Positions of bridges follow the written chain, without caps; N, C: chain ends. Primed or numbered codes have the meaning given here. PEG2′ = PEG2 spacer at the C-terminus, followed by 3-mercaptopropionate; CH2 = C([*:1])[*:2]

The first assay concerns the target T1, Cynomolgus LY6G6D ectodomain fused to mouse IgG2A Fc (monovalent display, knob-in-hole) (cynomolgus, UniProt O95868 20-104 (human entry)).
T1 construct: Same design as the human construct; Tags are not described; also called cyno LY6G6D-mouse Fc fusion antigen; cynomolgus monkey LY6G6D
T1 chain: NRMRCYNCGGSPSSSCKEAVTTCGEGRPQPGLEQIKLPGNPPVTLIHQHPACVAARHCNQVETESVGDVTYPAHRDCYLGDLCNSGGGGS
The assay can be described thus: SPR, Biacore 8K+, cyno LY6G6D-mouse Fc captured by anti-mouse antibody on CM5, antibody as analyte 50-0.7813 nM, 25 C. The method, then:
(§1) SPR multipoint kinetic analyses against human and cynomolgus monkey LY6G6D was also performed. LY6G6D binding kinetics were performed via surface plasmon resonance (SPR) on a Biacore 8K+. A Mouse Antibody Capture Kit, type 2 (Cytiva 29215281) was used for amine coupling to a CM5 sensor chip (BR100530) and the immobilization was performed exactly according to the manufacturer's standard settings. To begin an SPR run, 7 startup cycles were run following chip immobilization to establish sensor stability. In these, LY6G6D-mouse Fc fusion antigen was first flowed into just flow cell 2 at 10 uL/min at a 5 nM concentration with a 120 sec contact time. 1×HBS-EP+ buffer, pH 7.6 was then flowed at 30 μL/min with a 420 sec contact time into the chip. Finally regeneration solution (10 mM Glycine-HCl pH 1.7) was flowed at 30 uL/min with a 120 sec contact time.
(§2) After this point, 16 analysis cycles were run, 8 first with human LY6G6D-mouse Fc fusion antigen and 8 next for cyno LY6G6D-mouse Fc fusion antigen. In both antigen formats, the antigen was captured at 10 uL/min at a 5 nM concentration diluted into 1×HBS-EP+ buffer, pH 7.6 with a 120 sec contact time. Next, selected antibodies diluted into 1×HBS-EP+ buffer, pH 7.6 were run as the analytes across a 7-point dilution series, 50 nM to 0.7813 nM with two-fold dilutions. A contact time of 300 sec followed by dissociation time of 1200 sec at a flow rate of 30 μL/min was used. Regeneration solution (10 mM Glycine-HCl pH 1.7) was flowed at 30 μL/min with a 120 sec contact time. Finally, a wait step of 60 sec with flow rate of 30 μL/min 1×HBS-EP+ buffer, pH 7.6 was used to re-establish sensor stability. These SPR binding studies were performed at 25° C.
Regarding B1, the Kd was 5.57 nM, the koff is 0.000448 s⁻¹ and the kon worked out at 80500 M⁻¹ s⁻¹.
As for B2, the affinity, expressed as Kd, was 0.9 nM; the off-rate constant (koff) was found to be 0.000149 s⁻¹; the kon was 166000 M⁻¹ s⁻¹.

For the next assay, the target named is T2, Human LY6G6D ectodomain fused to mouse IgG2A Fc (monovalent display, knob-in-hole) (human, biotinylated for BLI capture (site not stated)).
T2 chain: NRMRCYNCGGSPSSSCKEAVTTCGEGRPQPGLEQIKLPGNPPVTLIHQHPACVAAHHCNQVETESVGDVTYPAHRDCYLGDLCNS
The assay can be described thus: BLI, chain shuffle round 1; antigen not named in the table (LY6G6D ectodomain as in Example 3).
B3: binding was characterised by a dissociation constant (Kd) of 0.91 nM, the dissociation rate constant (koff) amounted to 0.000105 s⁻¹ and the kon was 116000 M⁻¹ s⁻¹.
With B4, binding was characterised by a dissociation constant (Kd) of 0.554 nM, the off-rate constant (koff) amounted to 8.4e-05 s⁻¹ and the association rate constant (kon) worked out at 152000 M⁻¹ s⁻¹.
In turn, B5 had a Kd of 16.5 nM, a koff of 0.00053 s⁻¹ and a kon of 32200 M⁻¹ s⁻¹.
As to B6, the affinity, expressed as Kd, was 17.6 nM; the dissociation rate constant (koff) is 0.000264 s⁻¹; the kon is 15000 M⁻¹ s⁻¹.
On the same counts, the results for B7 are 5.35 nM, 0.000705 s⁻¹ and 132000 M⁻¹ s⁻¹.
On the same counts, the results for B8 are 12.7 nM, 0.0017 s⁻¹ and 134000 M⁻¹ s⁻¹.
Taken in the same sequence, the figures for B9 were 3.15 nM, 0.000413 s⁻¹ and 131000 M⁻¹ s⁻¹.
Molecule B10 returned a dissociation constant Kd of 0.699 nM, an off-rate (koff) of 9.87e-05 s⁻¹ and a kon of 141000 M⁻¹ s⁻¹.

The next assay has as its target T3, LY6G6D cyclic peptide Ac-RDC*YLGDLC*NS-PEG2-3-mercaptopropionate (bridge 3-9 via CH2; not fully specified; printed as Ac-RDC*YLGDLC*NS-PEG2-3-mercaptopropionate).
T3 construct: Represents the most membrane-proximal stretch of LY6G6D; also called octomer cyclic peptide
T3 peptide: Ac-RDCYLGDLCNS-{PEG2′-3‑mercaptopropionate}
The assay is described as follows: flow binding assay on cyclic-peptide beads.
B11: the binding result was “binds”.
As to B12, the binding result is on record as “binds”.
As for B13, the binding result is recorded as “binds”.
Same read-out and setting: the entry for B14 is “binds”; for B15 it is “binds”; for B16 it is “binds”.
Same read-out and setting: the entry for B17 is “binds”.
With B18, the binding result was “binds”.
For B19, the binding result is “binds”.
Turning to B20, the binding result is listed as “binds”.
On the same count and under the same terms, the entry for B21 is “binds”.

In another assay the target is T2, Human LY6G6D ectodomain fused to mouse …. The assay can be described thus: SPR, Biacore 8K+, LY6G6D-mouse Fc captured by anti-mouse antibody on CM5, antibody as analyte 50-0.7813 nM, 25 C. As for the experimental part:
as §1, §2
In turn, B1 had an equilibrium dissociation constant (Kd) of 3.2 nM, a dissociation rate constant (koff) of 0.00031 s⁻¹ and a kon of 96700 M⁻¹ s⁻¹.
Molecule B2 registered a Kd of 0.385 nM, a koff of 7.12e-05 s⁻¹ and a kon of 185000 M⁻¹ s⁻¹.
